Key:
Assay in all cases: cell_activity
synTF ZF 9-2 = conditions: 1x reporter, HEK293FT; KRAB and HP1 fusions also repress
synTF ZF 8-1 = conditions: 1x reporter, HEK293FT; KRAB and HP1 fusions also repress
synTF ZF 3-5 = conditions: 1x reporter, HEK293FT; KRAB and HP1 fusions also repress
synTF ZF 7-3 = conditions: 1x reporter, HEK293FT; KRAB and HP1 fusions also repress
synTF ZF 1-3 = conditions: 1x reporter, HEK293FT; KRAB and HP1 fusions also repress (p284, p286)
synTF ZF 4-8 = conditions: 1x reporter, HEK293FT; KRAB and HP1 fusions also repress
synTF ZF 6-4 = conditions: 1x reporter, HEK293FT; KRAB and HP1 fusions also repress
synTF ZF 2-6 = conditions: 1x reporter, HEK293FT; KRAB and HP1 fusions also repress
synTF ZF 5-7 = conditions: 1x reporter, HEK293FT; KRAB and HP1 fusions also repress

## AGACGCAGTATAGGACGACG (double strand) [Target 9]
synTF ZF 9-2
  activity (fold GFP activation): > 10

## AGACGCAGTATAGGTCGAAC (double strand) [Target 8]
synTF ZF 8-1
  activity (fold GFP activation): > 10

## AGACGTCGAAGTAGCCGTAG (double strand) [Target 3]
synTF ZF 3-5
  activity (fold GFP activation): > 10

## CGACGAGGTCGCATAAGTAG (double strand) [Target 7]
synTF ZF 7-3
  activity (fold GFP activation): > 10

## CGTCGAAGTCGAAGTCGACC (double strand) [Target 1]
synTF ZF 1-3
  activity (fold GFP activation): > 10

## GGACGACGCCGATGTAGAAG (double strand) [Target 4]
synTF ZF 4-8
  activity (fold GFP activation): > 10

## GGACGACGCGGTCTAAGAAG (double strand) [Target 6]
synTF ZF 6-4
  activity (fold GFP activation): > 10

## GGACGACGTTACGGACGTAC (double strand) [Target 2]
synTF ZF 2-6
  activity (fold GFP activation): > 10

## TGAAGCAGTCGACGCCGAAG (double strand) [Target 5]
synTF ZF 5-7
  activity (fold GFP activation): > 10

Source: patent US10138493
